We go through 22 sequences from the DeepSol protein solubility set.

The nature of this data set: soluble on expression in E. coli; label from the status in PepcDB or PDB records.
For “MEENSADIENRPVAAFRPAVSVPMPVLPQDGEVFVGPGGKKDAQKIGLGLSKLSSKRKDDIQMAKKYAMDISIKQILLRQQKQQQENQQRQQMYSQALSIMSRIYVGSISFEIREDMLRRAFDPFGPIKSINMSWDPATGHHKTFAFVEYEVPEAALLAQESMNGQMLGGRNLKVNSMMFQEMRLPQNMPQAQPIIDMVQKDAKKYFRVYVSSVHPDLSETDLKSVFEAFGEIVKCQLARAPTGRGHRGFGYLEFNNLTSQSEAIAGMNMFDLGGQYLRVGKCVTPPDALTYLQPASVSAIPASVSVACAAITAKVMAAEAAAGSSPKTPSESGGSRAASPAPRAQSPATPSSSLPTDIENKAVISSPKKEPEEIEVPPLPPSAPDVVKDEPMEIEEEEEYTIPEEKPKPVAIVPPPGLAIPSLVAPPGLIAPTEIGIVVPNPSFLAQQQQKIEEKIEEEEEARTERVKLSTSQRKKMKREKLNQMTFEEKMAQVLGQQKAVQNQRMADPVTFGALDDTVAWKDPSNEDQTSEDGKMLAIMGPGRGGDNVASMALALMDGGSSLMLANNAKAKEAAAALALEPKKKKKVKEGKKIQPKLNTAQALAAAAKAGEMSDALKNEVMNSEDASLASQEGLEIRGNDARHLLMTKLMRTNRSNVIVLRNMVTPQDIDEFLEGEIREECGKYGNVIDVVIANFASSGLVKIFVKYSDSMQVDRAKAALDGRFFGGNTVKAEAYDQILFDHADYTG”, the “soluble on expression in E. coli” value is “not soluble”.
With “NRFIGYIQVACCCLLLCASCVRDGMDEDCNSYVRFVYDYNLEYIDLFHKQATKMNLYVFDEKGVFVTELKEESGAFAPDYLMTLPGAMAGRRYIFVAWSGLYGESYDKVTLTPGVSTLEDLEVSVNNLKTRIGGGVVDRELHLLWHGKQTEVSPQYNNDITTVSLLKNTKKFRIIMQMLDDSSIHVDDYDFRIISPNGRYNHENGLLGDETDEKVEYTAYHTEDDPETGAIAELNTLRLMTDTENRLVITHKSSGNVILDIPLNKYLNALRLQQYADIPLQEYLDRADKHGIILFFKGMDGNGNYISVDVQINGWLIRKQEVD” the entry was “not soluble”.
Then “MALLQISEPGLSAAPHQRRLAAGIDLGTTNSLVATVRSGQAETLPDHEGRHLLPSVVHYQQQGHTVGYAARDNAAQDTANTISSVKRMMGRSLADIQTRYPHLPYRFKASVNGLPMIDTAAGLLNPVRVSADILKALAARASESLSGELDGVVITVPAYFDDAQRQGTKDAARLAGLHVLRLLNEPTAAAIAYGLDSGKEGVIAVYDLGGGTFDISILRLSRGVFEVLATGGDSALGGDDFDHLLADYIREQAGIADRSDNRVQRELLDAAIAAKIALSDADTVRVNVAGWQGEITREQFNDLISALVKRTLLACRRALKDAGVEPQDVLEVVMVGGSTRVPLVRERVGEFFGRTPLTAIDPDKVVAIGAAIQADILVGNKPDSEMLLLDVIPLSLGLETMGGLVEKVIPRNTTIPVARAQDFTTFKDGQTAMSIHVMQGERELVQDCRSLARFALRGIPPLPAGGAHIRVTFQVDADGLLSVTAMEKSTGVEASIQVKPSYGLTDGEIASMIKDSMSFAEQDVKARMLAEQKVEAARVLESLTGALTADAALLSAAERQCIDDAAAHLSAVAQGDDVDAIEQAIKNVDKQTQEFAARRMDQSVRRALKGHSVDEV”, with “not soluble”; and “QKGRVETRRVVHIMDFQRGKNLRYQLLQLVEPFGVISNHLILNKINEAFIEMATTEDAQAAVDYYTTTPALVFGKPVRVHLSQKYKRIK”, with “soluble”; and “MGSDKIHHHHHHMQRARCYLLGERAVVLELEPPMSLESQQRIWGLAERLNHHEEVLEVIPGMNNLTVLLAHPQQVALDAIERLQRWWEESESLVFDPRDIDIPVIYGGEAGPDLAEVAAHSGLTVSQVVEAHAAAQYVVYFLGFQPGFAYLGGLNEKLHMPRRAEPRLRVPEGSVGIGGAQTGIYPLATPGGWQLIGRTSLTLFNPQTMPPTLLRPGDNVRFLPQKEGVC”, with “not soluble”.
Then “MAHHHHHHMTEGPLIVVGSVTLDQAARCYSPLSAPLRVRLEYAVLRPVVNPAWAATFEADIAYGRISVPLVQPTACSECMTPLNVPSSFLQHTPSDSIATLQPGELYQLDVHLETMELSKVEEKYVLQVGMLRLILLSGKTELADVNHVVQVKKNDDGELMRLIMNPLV”, with “not soluble”; and “ALCAICGDRATGKHYGASSCDGCKGFFRRSVRKNHMYSCRFSRQCVVDKDKRNQCRYCRLKKCFRAGMKKEAVQNERD”, with “soluble”; and “MGKNVVVLGTQWGDEGKGKVVDLLTERAKYVVRYQGGHNAGHTLVINGEKTVLHLIPSGILRENVISIIGNGVVLAPDALMKEMTELEARGVPVRERLLLSEACPLILPYHVALDNAREKARGAKAIGTTGRGIGPAYEDKVARRGLRVSDLFNKETFAIKLKEIVEYHNFQLVHYYKEAAVDYQKVLDDVLAIADILTAMVVDVSELLDNARKQGELIMFEGAQGTLLDIDHGTYPYVTSSNTTAGGVATGSGLGPRYVDYVLGIVKAYSTRVGAGPFPTELNDETGEFLRKQGNEYGATTGRSRRTGWLDIVAVRRAVQINSLSGFCMTKLDVLDGLKEVKLCVGYRMPDGREVDTTPLAAEGWEGIEPIYETMPGWSETTFGVKEHSKLPQAALNYIQRVEELTGVPIDIISTGPDRDETMILRDPFDA”, with “soluble”.
As to “LQFAYKDPEKNWNRNSVKGLVASLINVKDNSTATALEVVAGERLYNVVVDTEVTAKKLLEKGELKRRYTIIPLNKISARCIAPETLRVAQNLVGPDNVHVALSLVDYKPELQKGMEFVFGTTFVCNNMDNAKKVAFDKRIMTRTVTLGGDVFDPHGTLSGG”, the “soluble on expression in E. coli” value is “soluble”.
For the sequence “MGTKIIGTGVYLPKNVLTNFDLEKIVDTSDEWITTRTGIKERRIAKEETITYMATQAAKEALREANLSPEELDLIILATLTPQKRFPSTACLVQAQLKAKGVYAFDISAACSGFIYALDIADSFIKSGKAKNVLVIGAEKLSEAVDWEDRSTCVLFGDGAGAVVVTRSEDKSDILATRMYAEGSLEELLHADNCGYIRMKGRELFKVAVRSMEEVCREVLEKAGVKPEEVSLVIPHQANVRIINALAEKLNIPKEKVFVNIQKYGNTSAASIPIALHEAIKEGKVKRGDLILMTAMGGGLTWGAVLLRY”, the “soluble on expression in E. coli” value was “soluble”.
“MRGSHHHHHHTDPALRAENIMNNPVIGVVMCRNRLKGHATQTLQEKYLNAIIHAGGLPIALPHALAEPSLLEQLLPKLDGIYLPGSPSNVQPHLYGENGDEPDADPGRDLLSMAIINAALERRIPIFAICRGLQELVVATGGSLHRKLCEQPELLEHREDPELPVEQQYAPSHEVQVEEGGLLSALLPECSNFWVNSLHGQGAKVVSPRLRVEARSPDGLVEAVSVINHPFALGVQWHPEWNSSEYALSRILFEGFITACQHHIAEKQRLGLCGR”: the “soluble on expression in E. coli” value is recorded as “soluble”.
With “GDAFCNPQATMDFLRFKLHQHQREVFAVMMLDSQHRLIEFNEMFFGTIDSASVYPREVVKAVLLCNAAAVIFAHNHPSGCAEPSSADRRITERLIAALATIDVPVLDHIVVADTCVSFAERGLL” the entry was “not soluble”.
Regarding “MVRVAVIGGSGVYDFPAENKRELTVETPYGKVNLTIGHVAGEEVAFLARHGKGHSVPPHKVNYRANIWALHELGVERIVATSAVGSLNPNMRPGDFVILDQLIDFTVSRPRTFYDGEESPHDRKFVAHVDFTEPYCPEIRRALITAAKDLSLPYHPKGTYVCTEGPRFETAAEIRAYRILGGDVVGMTQCPEAALARELEMCYATVAIVTNYAAGISGKKLTHAEVVELMNKKTREITALITKAIPLIPKERNCPCKDALKGATG”, the “soluble on expression in E. coli” value is on record as “soluble”.
With “MMDGDIIGENEDGIGVDVSDNNEIIHEISIEKGSWEIVYHEQDGYPDKAAKRTPDGNEHVNQARRFARYHVYKERGYETFPWDEHIGYIETVGDAIKSLSTEEFEDYFGEFYETVAGSLSLNSGGDITALFAAIQEKANAYYIDVYLDNDGQVEATSEVRQIIPTDDWQEELESPPEDTDRVPD” the entry was “not soluble”; with “MSNPQPEKVRVVVGDDHPLFREGVVRALSLSGSVNVVGEADDGAAALELIKAHLPDVALLDYRMPGMDGAQVAAAVRSYELPTRVLLISAHDEPAIVYQALQQGAAGFLLKDSTRTEIVKAVLDCAKGRDVVAPSLVGGLAGEIRQRAAPVAPVLSAREREVLNRIACGQSIPAIAAELYVAPSTVKTHVQRLYEKLGVSDRAAAVAEAMRQRLLD”, “soluble”.
Then “MGYNTIPAGKDLPNDIYVAIEIPANASPIKYEIDKDMDALLVDRFMATPMFYPANYGYINNTLADDGDALDVLVITPYPVAPGSVIRARPVGVLKMSDEAGGDEKLLAVPHEKLTQLYNDIHDIDDVPQLLKDQIVHFFEHYKDLEKGKWVKVEGWENADAARAAIVKSAAAYKG”, with “soluble”; and “MGSDKIHHHHHHMAKAFASQGDMSEKKISFTEVGEGLYAFTAEGDPNSGVIIGDDSVMVVEAQATPRLAQKVIDCIREVTDKPISHVVLTHYHAVRVLGASAFGAGQVIMSDTARSMVVERGQEDWDSEFQRFPRLFEGHESIPGLTWPTTTFSDSMTVYLGKRRVDIMHLGRAHTAGDAVIHVPDQNVMFTGDIVEYHSACYCGDGHFNDWGNTLDNIAWFDVDAIAPGRGDALVGKEMVNAAIENTRDFVQSTYRPAARVAARGGSLKEAWDAVRAECDPKFADYAIYEHCLPFNVARAYDEARGIDTPRIWTAQRDLEMWEALQG”, with “not soluble”.
With “MGSDKIHHHHHHMTDPDIGDSQDHANIISILQDLGLTENESRVYILLLEYGSMAAQDILRYLPLRQPQLYDITSSLERKGFINVLLGRPKKYEAIDPEAVVEAREQILSRNRRYFLTWANRAMETRRETTALINAKNIRSVINNSIDLINETEKTLEIETTQELFAYIREPILRKIREGCRVEILFFGTDVDLEKVQNQFTDLDVDVRYVSPGQFFTVISDEKNSVFMPRSVAMNTDIERYGYVIRDKDMSWFITHNFFVGWYRGNRIKDHSVVAPYTYHSQRILISDLKRIFDQKGRVHGVLEGIVRSTGDRFTSEGEISEINSDTEIINFVFKTDRGEYTVGGYDSQIEDIVMKSFTVASFG” the entry was “not soluble”.
On to “MSLLSEENEFLFDLNEIPEKTVYSDDGDEFLFDLNKIPPREETVNSSDEDFADHLHRRNQATKRKKKLRKRPKVFRHIEKVISFSFYLVLRASSFLFLDLNWGLRMDTDPYQELRMDTDHMTYEQLLQLCNNMGYENSGVKASNIDRCLRNTKPSEFQSLADKICCICQDGFQKRAGVGKLNCGHNFHVNCVKPWILTKK”, for which the “soluble on expression in E. coli” value was “soluble”.
As for “STDVHRRFLQLLMTHGVLEEWDVKRLQTHCYKVHDRSATVDKLEDFINNINSVLESLYIEIKRGVTEDDGRPIYALVNLATTSISKMATDFAENELDLFRKALELIIDSETGFASSTNILNLVDQLKGKKMRKKEAEQVLQKFVQNKWLIEKEGEFTLHGRAILEMEQYIRETYPDAVKICNICHSLLIQGQSCETCGIRMHLPCVAKYFQSNAEPRCPHCNDYWPHEIPKVFDPEKERESGVLKSNKKSLRSRQH”, the “soluble on expression in E. coli” value is “soluble”.
Then “MGSDKIHHHHHHMRITIVTIFPEMVEVIKKYGVIARAVERGIVEINVENLRDYTTDRHRTVDDYQYGGGYGMVMKPEPFFRFYESYVEKYGKPYVILTSPQGRIFNYKIAEELSKKDDIVIFCGRYEGIDERVMSIVDDEISIGDYILTGGELPAMVITDAVVRLVPGVVERESVERESFHQGLLDHPVYTRPYEYKGMKVPDVLLSGDHEKVELWRRKESIKKTLAKRPDLFLAKELDEMDKLAIIELFRELMEKC”, with “not soluble”; and “MPFIDLQSKLGINVDKWLLAQSGEQPRKRAAFCHAFEKEWIECSHAIGKTRASKECNIEWEDFYECMHRFKTMKRLKEISTQKEKMIKEGTYTPPPHHTGKGEPLS”, with “not soluble”.
